According to paper PMC10833071:

B1: BioT6SS1-p (dsDNA)
DNA 1: TATCGCAATAAAAATGCCACTCATGTTTTAATATA
DNA 2: TATATTAAAACATGAGTGGCATTTTTATTGCGATA
B2: T6SS1-p (unlabeled) (dsDNA)
DNA 1: B1 DNA 1
DNA 2: B1 DNA 2

Assays:
His6-Fur [1] = biological target: T1, His6-Fur (UniProt Q66DC2 1-148); test: EMSA; 5 mM MgCl2, 50 ng poly(dI-dC); […] (pH not stated); ITC: PBS, 25 C; conditions: protein: recombinant; tags: His6; chain copies: 2; label: 5' biotin (BioT6SS-1pF); blunt
His6-Fur [2] = biological target: T1, His6-Fur; test: competition; […] (pH not stated); ITC: PBS, 25 C; conditions: protein: recombinant; tags: His6; chain copies: 2; blunt

Binder	binding result (His6-Fur [1])	binding result (His6-Fur [2])
B1	binds	
B2		binds
